Tested on: raptor (Regulatory Associated Protein of mTOR), endogenous human protein

## mTOR (mammalian target of rapamycin), endogenous protein of human cell lines
  in vitro kinase activity of mTOR towards S6K1 (32P incorporation into GST-S6K1): the in vitro kinase activity of mTOR towards S6K1 inversely correlated with the amount of raptor recovered with mTOR
